According to the supplement of paper PMC7877785:
± gives the uncertainty stated by the source.

Assay: self-splicing fitness, log relative to wild type (ln ratio); higher = more splicing; Tetrahymena group I intron in knt gene, E. coli kanamycin selection, DiMSum; sequences stand for … in CUCUCU…GGAGGGAAAAGUUAUCAGGCAUGCACCUGGUAGCUAGUCUUUAAACCAAUAGAUUGCAUCGGUUUAAAAGGCAAGACCGUCAAAUUGCGGGAAAGGGGUCAACAGCCGUUCAGUACCAAGUCUCAGGGGAAACUUUGAGAUGGCCUUGCAAAGGGUAUGGUAAUAAGCUGACGGACAUGGUCCUAACCACGCAGCCAAGUCCUAAGUCAACAGAUCUUCUGUUGAUAUGGAUGCAGUUCACAGACUAAAUGUCGGUCGGGGAAGAUGUAUUCUUCUCAUAAGAUAUAGUCGGACCUCUCCUUAAUGGGAGCUAGCGGAUGAAGUGAUGCAACACUGGAGCCGCUGGGAACUAAUUUGUAUGCGAAAGUAUAUUGAUUAGUUUUGGAGUACUCGUGGUCG
In short: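 Fitness was computed with DiMSum as the error-weighted combination of replicate fold changes, kanamycin versus none, each normalised to wild type. The library randomised all eight intron nucleotides of the P1ex region, with the intron placed in the knt kanamycin-resistance gene on pET-22b(+) in E. coli BL21(DE3). Six replicate transformations were grown overnight at 37°C or 30°C on LB agar with or without 25 μg/mL kanamycin, plus 100 μg/mL carbenicillin, 50 μM IPTG and 0.2% rhamnose. Pooled colonies were amplicon-sequenced on an Illumina HiSeq 2500.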

| Sequence | self-splicing fitness (ln) (30 °C) | self-splicing fitness (ln) (37 °C) |
| --- | --- | --- |
| UCCCAGCAAUAUUACGUAUA | -2.5 ± 0.1 | -1.33 ± 0.1 |
| AAUGAGCAAUAUUACGCGCA | -2.54 ± 0.34 | -1.76 ± 0.49 |
| CAACAGCAAUAUUACGCCUU | -2.95 ± 0.11 | -1.1 ± 0.081 |
| GCUGAGCAAUAUUACGUCCC | -0.877 ± 0.092 | -0.184 ± 0.11 |
| AAGUAGCAAUAUUACGACCA | -1.55 ± 0.16 | 0.396 ± 0.21 |
| GAUCAGCAAUAUUACGCGUU | -2.22 ± 0.1 | -1.21 ± 0.12 |
| UUUGAGCAAUAUUACGCUAU | -3.79 ± 0.42 | -2.26 ± 0.23 |
| CCACAGCAAUAUUACGAGAG | -2.41 ± 0.067 | -1.25 ± 0.065 |
| UGUUAGCAAUAUUACGGAAA |  | -2.24 ± 0.39 |
| UCAUAGCAAUAUUACGUGUC | -3.2 ± 0.21 | -3.08 ± 0.27 |
| CGGCAGCAAUAUUACGCUGA | -3.18 ± 0.17 | -2.17 ± 0.23 |
| CUAAAGCAAUAUUACGGUCC | -4.33 ± 0.47 | -2.2 ± 0.35 |
| AGCUAGCAAUAUUACGGCUU | -3.43 ± 0.21 | -2.62 ± 0.23 |
| UACGAGCAAUAUUACGAGGU | -3.41 ± 0.19 | -3.16 ± 0.17 |
| GUUAAGCAAUAUUACGAUUU | -0.759 ± 0.09 | -0.00651 ± 0.14 |
| AAUCAGCAAUAUUACGAGAU | -2.72 ± 0.11 | -0.708 ± 0.1 |
| UGUAAGCAAUAUUACGCCGU | -2.48 ± 0.26 | -3.08 ± 0.47 |
| CACCAGCAAUAUUACGCCCC | -3.28 ± 0.38 |  |
| ACCCAGCAAUAUUACGCAAA | -1.21 ± 0.065 | -0.816 ± 0.068 |
| CUUAAGCAAUAUUACGUACU | -2.82 ± 0.16 | -2.67 ± 0.23 |

| Sequence | self-splicing fitness (ln) (30 °C) | self-splicing fitness (ln) (37 °C) |
| --- | --- | --- |
| UCAUAGCAAUAUUACGGAAA | -2.84 ± 0.41 | -2.4 ± 0.28 |
| CGAAAGCAAUAUUACGGGUC | -4 ± 0.3 | -3.76 ± 0.34 |
| GAUCAGCAAUAUUACGGGCC | -0.0569 ± 0.16 | -0.311 ± 0.18 |
| UCAAAGCAAUAUUACGGCCC | -3.79 ± 0.47 | -2.18 ± 0.46 |
| UACCAGCAAUAUUACGGGGA | -1.24 ± 0.083 | -0.746 ± 0.083 |
| UACCAGCAAUAUUACGGAAC | -3.57 ± 0.44 | -3.27 ± 0.27 |
| AAUGAGCAAUAUUACGUAUG |  | -2.92 ± 0.28 |
| AUAUAGCAAUAUUACGGCUC | -0.0589 ± 0.13 | -0.144 ± 0.16 |
| GUGGAGCAAUAUUACGACUC | -3.19 ± 0.45 | -1.47 ± 0.44 |
| AUUGAGCAAUAUUACGCAGA |  | -2.45 ± 0.41 |
| AUGUAGCAAUAUUACGACGU | -0.432 ± 0.087 | 0.442 ± 0.095 |
| AUCGAGCAAUAUUACGACAG | -2.51 ± 0.12 | -3.22 ± 0.19 |
| GGAGAGCAAUAUUACGUCGU | -2.89 ± 0.21 | -2.5 ± 0.27 |
| CGUCAGCAAUAUUACGCGGA |  | -3.17 ± 0.32 |
| ACACAGCAAUAUUACGGAUG | -1.54 ± 0.058 | -0.668 ± 0.084 |
| CUUCAGCAAUAUUACGGUCA | -2.2 ± 0.25 | -3.2 ± 0.24 |
| GAAGAGCAAUAUUACGAUAG | -3.04 ± 0.24 | -2.14 ± 0.29 |
| CCACAGCAAUAUUACGUGCC | -1.6 ± 0.15 | -2.36 ± 0.21 |
| UAGCAGCAAUAUUACGACGC | -3.94 ± 0.31 | -1.82 ± 0.19 |
